In PMC6497308:

B1: ATP1B2 (Na/K-ATPase β2 subunit): N96Q (protein)
parent chain: MVIQKEKKSCGQVVEEWKEFVWNPRTHQFMGRTGTSWAFILLFYLVFYGFLTAMFTLTMWVMLQTVSDHTPKYQDRLATPGLMIRPKTENLDVIVNVSDTESWDQHVQKLNKFLEPYNDSIQAQKNDVCRPGRYYEQPDNGVLNYPKRACQFNRTQLGNCSGIGDSTHYGYSTGQPCVFIKMNRVINFYAGANQSMNVTCAGKRDEDAENLGNFVMFPANGNIDLMYFPYYGKKFHVNYTQPLVAVKFLNVTPNVEVNVECRINAANIATDDERDKFAGRVAFKLRINKT
B2: ATP1B2 (Na/K-ATPase β2 subunit): N153Q (protein)
parent chain: MVIQKEKKSCGQVVEEWKEFVWNPRTHQFMGRTGTSWAFILLFYLVFYGFLTAMFTLTMWVMLQTVSDHTPKYQDRLATPGLMIRPKTENLDVIVNVSDTESWDQHVQKLNKFLEPYNDSIQAQKNDVCRPGRYYEQPDNGVLNYPKRACQFNRTQLGNCSGIGDSTHYGYSTGQPCVFIKMNRVINFYAGANQSMNVTCAGKRDEDAENLGNFVMFPANGNIDLMYFPYYGKKFHVNYTQPLVAVKFLNVTPNVEVNVECRINAANIATDDERDKFAGRVAFKLRINKT
B3: ATP1B2 (Na/K-ATPase β2 subunit): N197Q (protein)
parent chain: MVIQKEKKSCGQVVEEWKEFVWNPRTHQFMGRTGTSWAFILLFYLVFYGFLTAMFTLTMWVMLQTVSDHTPKYQDRLATPGLMIRPKTENLDVIVNVSDTESWDQHVQKLNKFLEPYNDSIQAQKNDVCRPGRYYEQPDNGVLNYPKRACQFNRTQLGNCSGIGDSTHYGYSTGQPCVFIKMNRVINFYAGANQSMNVTCAGKRDEDAENLGNFVMFPANGNIDLMYFPYYGKKFHVNYTQPLVAVKFLNVTPNVEVNVECRINAANIATDDERDKFAGRVAFKLRINKT
B4: ATP1B2 (Na/K-ATPase β2 subunit): N250Q (protein)
parent chain: MVIQKEKKSCGQVVEEWKEFVWNPRTHQFMGRTGTSWAFILLFYLVFYGFLTAMFTLTMWVMLQTVSDHTPKYQDRLATPGLMIRPKTENLDVIVNVSDTESWDQHVQKLNKFLEPYNDSIQAQKNDVCRPGRYYEQPDNGVLNYPKRACQFNRTQLGNCSGIGDSTHYGYSTGQPCVFIKMNRVINFYAGANQSMNVTCAGKRDEDAENLGNFVMFPANGNIDLMYFPYYGKKFHVNYTQPLVAVKFLNVTPNVEVNVECRINAANIATDDERDKFAGRVAFKLRINKT
B5: ATP1B2 (Na/K-ATPase β2 subunit): N118Q (protein)
parent chain: MVIQKEKKSCGQVVEEWKEFVWNPRTHQFMGRTGTSWAFILLFYLVFYGFLTAMFTLTMWVMLQTVSDHTPKYQDRLATPGLMIRPKTENLDVIVNVSDTESWDQHVQKLNKFLEPYNDSIQAQKNDVCRPGRYYEQPDNGVLNYPKRACQFNRTQLGNCSGIGDSTHYGYSTGQPCVFIKMNRVINFYAGANQSMNVTCAGKRDEDAENLGNFVMFPANGNIDLMYFPYYGKKFHVNYTQPLVAVKFLNVTPNVEVNVECRINAANIATDDERDKFAGRVAFKLRINKT
B6: ATP1B2 (Na/K-ATPase β2 subunit): N193Q (protein)
parent chain: MVIQKEKKSCGQVVEEWKEFVWNPRTHQFMGRTGTSWAFILLFYLVFYGFLTAMFTLTMWVMLQTVSDHTPKYQDRLATPGLMIRPKTENLDVIVNVSDTESWDQHVQKLNKFLEPYNDSIQAQKNDVCRPGRYYEQPDNGVLNYPKRACQFNRTQLGNCSGIGDSTHYGYSTGQPCVFIKMNRVINFYAGANQSMNVTCAGKRDEDAENLGNFVMFPANGNIDLMYFPYYGKKFHVNYTQPLVAVKFLNVTPNVEVNVECRINAANIATDDERDKFAGRVAFKLRINKT
B7: ATP1B2 (Na/K-ATPase β2 subunit): N238Q (protein)
parent chain: MVIQKEKKSCGQVVEEWKEFVWNPRTHQFMGRTGTSWAFILLFYLVFYGFLTAMFTLTMWVMLQTVSDHTPKYQDRLATPGLMIRPKTENLDVIVNVSDTESWDQHVQKLNKFLEPYNDSIQAQKNDVCRPGRYYEQPDNGVLNYPKRACQFNRTQLGNCSGIGDSTHYGYSTGQPCVFIKMNRVINFYAGANQSMNVTCAGKRDEDAENLGNFVMFPANGNIDLMYFPYYGKKFHVNYTQPLVAVKFLNVTPNVEVNVECRINAANIATDDERDKFAGRVAFKLRINKT
B8: ATP1B2 (Na/K-ATPase β2 subunit): N159Q (protein)
parent chain: MVIQKEKKSCGQVVEEWKEFVWNPRTHQFMGRTGTSWAFILLFYLVFYGFLTAMFTLTMWVMLQTVSDHTPKYQDRLATPGLMIRPKTENLDVIVNVSDTESWDQHVQKLNKFLEPYNDSIQAQKNDVCRPGRYYEQPDNGVLNYPKRACQFNRTQLGNCSGIGDSTHYGYSTGQPCVFIKMNRVINFYAGANQSMNVTCAGKRDEDAENLGNFVMFPANGNIDLMYFPYYGKKFHVNYTQPLVAVKFLNVTPNVEVNVECRINAANIATDDERDKFAGRVAFKLRINKT

Test: Western blot densitometry of ATP1B2 in HEK293
Conditions: glycan lost; control: normal ATP1B2

| Protein | expression_or_secretion |
| --- | --- |
| B1 | no change |
| B2 | no change |
| B3 | no change |
| B4 | no change |
| B5 | no change |
| B6 | no change |
| B7 | no change |
| B8 | no change |
